How the values were obtained:
[1] = biological target: T1, EGFRvIII-mmh (human, UniProt P00533 298-647, limits assumed); test: ELISA
T1 construct: Soluble monomeric protein; also called hEGFRvIII-mmh; hEGFRvIII.mmh
Description: (§1) To further characterize anti-hEGFRvIII mAbs, their binding specificity was examined by ELISA. […] Also, coated was an irrelevant peptide (control peptide) with or without biotin at its N-terminal. […] The plates were then washed and bound anti-EGFRvIII mAbs were detected with anti-human Fc antibodies conjugated with horse-radish peroxidase (HRP). […] Data analysis used a sigmoidal dose-response model within PRISM™ software.

[2] = biological target: T2, EGFR-mmh (human, UniProt P00533 25-647, limits assumed); test: ELISA
T2 construct: Soluble monomeric protein; also called hEGFR-mmh
Description: as §1

[3] = biological target: T1, EGFRvIII-mmh; test: SPR 37C, mAb-capture
[4] = biological target: T2, EGFR-mmh; test: SPR 37C, mAb-capture
[5] = biological target: T3, EGFRvIII-mFc (human); test: SPR 37C, mAb-capture
T3 construct: Soluble dimeric protein

[6] = biological target: T4, EGFR-mFc (human); test: SPR 37C, mAb-capture
T4 construct: Soluble dimeric protein

[7] = biological target: T3, EGFRvIII-mFc; test: SPR 37C, receptor-capture
Description: (§2) Measurements were conducted on a T100 BIACORE™ instrument. […] In the receptor-capture format, either EGFRvIII-mFc or EGFR-mFc, was captured on the BIACORE™ chip and the respective antibodies flowed over. Kinetic association (kₐ) and dissociation (kd) rate constants were determined by processing and fitting the data to a 1:1 binding model using Scrubber 2.0 curve fitting software. Binding dissociation equilibrium constants (KD) and dissociative half-lives (t_{1/2}) were calculated from the kinetic rate constants as: KD (M)=kd/kₐ; and t₁₁₂ (min)=ln2/(60*kd).

[8] = biological target: T4, EGFR-mFc; test: SPR 37C, receptor-capture
Description: as §2

[9] = biological target: T5, wild-type human EGFR on cells (human, UniProt P00533 25-1210); test: FACS, A431 cells, PE secondary antibody
T5 construct: Stands for transfected HEK293/hEGFRwt, endogenous EGFR of A431 and of parental HEK293 cells, and human EGFR of hEGFR mice; the cell line is named under assay; also called EGFRwt; hEGFRwt
Description: (§3) To determine the specificity of the anti-EGFRvIII mAbs, their binding to HEK293, HEK293 cells expressing EGFRvIII (HEK293/EGFRvIII) and A431 cells, was analyzed by fluorescence activated cell sorting (FACS). HEK293/EGFRvIII cells were prepared by transfecting HEK293 cells with neomycin resistant DNA vectors constitutively expressing full-length hEGFRvIII (SEQ ID NO:147) using LIPOFECTAMINE™ 2000 transfection reagent (INVITROGEN™). At two days post-transfection, cells were placed under G418 selection for approximately two weeks. Populations positively expressing EGFRvIII were isolated via fluorescence activated cell sorting (FACS). The HEK293 cells expressing ˜3×10⁶ copies of EGFRvIII per cell were used in the experiment. […] In another set of experiment, anti-EGFRvIII antibodies were directly conjugated via their lysine residues with the fluorescent dye, ALEXA FLUOR® 488 Dye (INVITROGEN™), thereby eliminating the step using the secondary antibody. […] Controls I, II, III, IV and V are described above. MFI: Mean Fluorescence Intensity.

[10] = biological target: T6, full-length hEGFRvIII on cells (human, UniProt P00533 298-1210); test: FACS, HEK293/EGFRvIII cells, PE secondary antibody
T6 construct: Expressed from vectors in HEK293, U87, B16F10.9, U251 and MMT 060562 cells; also called HEK293/EGFRvIII; HEK293/hEGFRvIII
Description: as §3

[11] = biological target: T7, C-terminal biotin-labeled EGFR311-326 peptide (human, biotin at the C-terminus); test: BLI (Octet RED), biotinylated peptide on streptavidin tips
T7 peptide: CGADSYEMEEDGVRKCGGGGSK
Description: After peptide capture, the coated tips were placed in 1 μM solutions of antibody and the binding responses were recorded (see FIG. 2). Controls I-III are the same as those described above.

[12] = biological target: T5, wild-type human EGFR on cells; test: FACS, A431 cells, directly labeled antibody
Description: as §3

[13] = biological target: T1, EGFRvIII-mmh; test: ELISA; ELISA, 25 C, EGFRvIII-mmh coated on the plate
Description: as §1

[14] = biological target: T6, full-length hEGFRvIII on cells; test: FACS, HEK293/EGFRvIII cells, directly labeled antibody
Description: as §3

[15] = biological target: T4, EGFR-mFc; test: SPR 37C, receptor-capture; 37 C, receptor-capture format (EGFR-mFc captured)
Description: as §2

[16] = biological target: T3, EGFRvIII-mFc; test: SPR 37C, receptor-capture; 37 C, receptor-capture format (EGFRvIII-mFc captured)
Description: as §2

[17] = biological target: T6, full-length hEGFRvIII on cells; test: cell-based or functional assay
[18] = biological target: T2, EGFR-mmh; test: ELISA; ELISA, 25 C, EGFR-mmh coated on the plate
Description: as §1

B1: H1H2195P (antibody, human IgG1, V domains shown)
VH: QVQLVESGGGVVQPGRSRRLSCVGSGFIFSSYGMHWVRQAPGKGLEWVALIFYDGSNEYYVDSVKGRFTISRDNSKNTLYLQMNSLRAEDTAVYYCAREGYSQRYKYYFGMDVWGQGTTVTVSS
VL: DIQMTQSPSSVSASVGDRVTITCRASQGISSWLAWYQQQPGKAPKLLIYAASSLQSGVPSRFSGSGSGTDFTLTISSLQPEDFATYYCQQTNSFPLTFGGGTKVEIKR
notes: Human IgG1 Fc; also called H1H2195N
EC50 [1]: 0.0049 nM | EC50 [2]: 0.0052 nM | Kd [3]: 10.7 nM | T½ [3]: 17 min | koff [3]: 0.000694 s⁻¹ | kon [3]: 64800 M⁻¹ s⁻¹ | Kd [4]: 9.2 nM | T½ [4]: 22 min | koff [4]: 0.000523 s⁻¹ | kon [4]: 56600 M⁻¹ s⁻¹ | Kd [5]: 1.1 nM | T½ [5]: 103 min | koff [5]: 0.000113 s⁻¹ | kon [5]: 102000 M⁻¹ s⁻¹ | Kd [6]: 2.05 nM | T½ [6]: 61 min | koff [6]: 0.000189 s⁻¹ | kon [6]: 92000 M⁻¹ s⁻¹ | Kd [7]: 0.106 nM | T½ [7]: 456 min | koff [7]: 2.53e-05 s⁻¹ | kon [7]: 237000 M⁻¹ s⁻¹ | Kd [8]: 0.231 nM | T½ [8]: 222 min | koff [8]: 5.2e-05 s⁻¹ | kon [8]: 225000 M⁻¹ s⁻¹ | A431 MFI [9]: 2230 MFI | Fold Above Background [9]: 1.6 fold | HEK293/EGFRvIII MFI [10]: 13500 MFI | Ratio (EGFRvIII MFI/parental MFI) [10]: 11.5

B2: H1H1863N2(Fuc-) (antibody, human IgG1, V domains shown)
VH: EVQLVESGGGLVQPGGSLRLSCAASGFPFSSYDMHWVRQATGKGLEWVSAIGTAGATYYPGSVKGRFTISRENAKNSLYLQMNSLRAGDTAVYYCARGDYVWGTYRPLFDYWGQGTLVTVSS
VL: DIQLTQSPSFLSASVGDRVTITCWASQGINNYLAWYQQKPGKAPKLLIYAASTLQTGVPSRFSGSGSGTEFTLTISSLQPEDFATYYCQQLNSYPLTFGGGTKVEIK
notes: Human IgG1; also called H1H1863N2 with reduced fucosylation; H1H1862N2 (Fuc-)
T½ [7]: 54 min | binding result [11]: no binding (tested: 1 µM)

B3: H1H2194P (antibody, human IgG1, V domains shown)
VH: QVQLVQSGAEVKKPGASVKVSCKASGYTFTSYDINWVRQATGQGLEWMGWINPNSDYTGYVQKFQGRVTMTRDTSISTAYMELSSLRSEDTAVYYCATSRWSEHFHHWGQGTLVTVSS
VL: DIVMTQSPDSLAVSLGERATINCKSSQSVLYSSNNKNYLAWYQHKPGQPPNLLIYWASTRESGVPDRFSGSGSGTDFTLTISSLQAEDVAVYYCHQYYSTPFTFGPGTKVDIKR
notes: Human IgG1 Fc; also called H1H2194N
EC50 [1]: 0.0032 nM | EC50 [2]: 0.0037 nM | Kd [3]: 17 nM | T½ [3]: 8 min | koff [3]: 0.00137 s⁻¹ | kon [3]: 81000 M⁻¹ s⁻¹ | Kd [4]: 12.6 nM | T½ [4]: 12 min | koff [4]: 0.00096 s⁻¹ | kon [4]: 76000 M⁻¹ s⁻¹ | Kd [5]: 2.33 nM | T½ [5]: 52 min | koff [5]: 0.000222 s⁻¹ | kon [5]: 95400 M⁻¹ s⁻¹ | Kd [6]: 2.43 nM | T½ [6]: 58 min | koff [6]: 0.000199 s⁻¹ | kon [6]: 81000 M⁻¹ s⁻¹ | Kd [7]: 0.394 nM | T½ [7]: 157 min | koff [7]: 7.38e-05 s⁻¹ | kon [7]: 188000 M⁻¹ s⁻¹ | Kd [8]: 0.38 nM | T½ [8]: 163 min | koff [8]: 7.07e-05 s⁻¹ | kon [8]: 187000 M⁻¹ s⁻¹ | A431 MFI [9]: 2290 MFI | Fold Above Background [9]: 1.6 fold | HEK293/EGFRvIII MFI [10]: 18600 MFI | Ratio (EGFRvIII MFI/parental MFI) [10]: 18.9

B4: H1H1915N (antibody, human IgG1, V domains shown)
VH: QVQLVESGGGVVQPGRSLRLSCAASGFTFSAYAMHWVRQAPGKGLEWVAVIWYDGSNKNYADSVKGRFTVSRDNSKNTLYLEMNSLRAEDTAVYYCARDLMVGVTNYWGQGTLVTVST
VL: DVVMTQSPLSLPVALGQPASISCRSSQSLVYTDGNTYLNWFHQRPGQSPRRLIYKVSNRDSGVPDRFTGSGSGTDFTLKISRVEAEDVGVFYCMQGSHWPPYTFGQGTKLEIK
notes: Human IgG1 Fc; also called H2M1915N (same variable domains)
A431 MFI [12]: 8440 MFI | Fold Above Background [12]: 1.2 fold | EC50 [13]: 0.167 nM | HEK293/EGFRvIII MFI [14]: 73400 MFI | Ratio (EGFRvIII MFI/parental MFI) [14]: 21.2 | Kd [15]: 184 nM | T½ [15]: 1.4 min | koff [15]: 0.00801 s⁻¹ | kon [15]: 43500 M⁻¹ s⁻¹ | Kd [16]: 3.2 nM | T½ [16]: 35 min | koff [16]: 0.000328 s⁻¹ | kon [16]: 100000 M⁻¹ s⁻¹

B5: H1H1911N (antibody, human IgG1, V domains shown)
VH: QVQLVESGGGVVQPGRSLRLSCAASGFTFSRYGIHWVRQAPGKGLEWVAVIWHDGSNKYYADSVKGRFTISRDNSKNTLYLQMTSLRAEDTAVYYCARDGLEIRDHYYYGMDVWGQGTTVTVSS
VL: DIQMTQSPSTLSASVGDRVTITCRASQSTSSWLAWYQQKPGKAPTLLIYKASSLESGVPSKFSGSGSGTEFTLTISSLQPDDFATYYCQQYNRYSRTFGQGTKVEIK
notes: Human IgG1 Fc; also called H2M1911N (same variable domains)
Fluorescent Intensity of vesicles 4° C., Mean [17]: 29800 | Fluorescent Intensity of vesicles 37° C., Mean [17]: 280000 | A431 MFI [9]: 3140 MFI | Fold Above Background [9]: 2.2 fold | A431 MFI [12]: 16000 MFI | Fold Above Background [12]: 2.4 fold | EC50 [18]: 9.06 nM | HEK293/EGFRvIII MFI [10]: 107000 MFI | Ratio (EGFRvIII MFI/parental MFI) [10]: 59.1 | EC50 [13]: 0.0748 nM | HEK293/EGFRvIII MFI [14]: 55100 MFI | Ratio (EGFRvIII MFI/parental MFI) [14]: 15.3 | Kd [15]: 224 nM | T½ [15]: 7 min | koff [15]: 0.00174 s⁻¹ | kon [15]: 7770 M⁻¹ s⁻¹ | Kd [16]: 19.5 nM | T½ [16]: 18 min | koff [16]: 0.000643 s⁻¹ | kon [16]: 32900 M⁻¹ s⁻¹
